B1: S009-F8-31.22 (antibody, human IgG1, kappa, V domains shown)
VH: EVQLVESGGDLVKPGGSLKLSCAASGFTFSTYGMSWVRQTPDKRLEWVATISSGGSYTYYPDSLKGRFTISRDNAKNTLYLQMSSLKSEDTAMYYCARHEGYYYGKDYWGQGTTLTVSS
VL: DIVLTQSPATLSVTPGDSVSLSCRASHSISNNLHWYQQKSHESPRLLIKYASQSISGIPSKFSGSGSGTDFTLSINSVETEDFGMYFCQQTNSWPLTFGAGTKLELKR
notes: Human-murine chimeric antibody, human IgG1 heavy and kappa light constant regions
B2: S009-F8-15.19 (antibody, human IgG1, kappa, V domains shown)
VH: EFQLQQSGPELVKPGASVKISCKASGYSFTDYNMNWVKQSNGKSLEWIGIINPYYGTTSNNQNFKGKATLTVDQSSSTAYMQLNSLTSDDSAVYYCARWLRRDAMDYWGQGTSVTVSS
VL: DIVMTPSHKFMSTSVGDRVSIACKASQDVGSSVAWYQQKPGQSPKLLIYWTSTRHTGVPDRFTGSGSGTDFTLTISNVQSEDLADYFCQQYSSYPWTFGGGTKLEIKR
notes: as for B1
B3: S009-F8-27.1 (antibody, human IgG1, kappa, V domains shown)
VH: EVQLVESGGGLVKPGGSLKLSCAASGFTFSSYAMSWVRQTPEKRLEWVATISDGGNYTYYPDNVKGRFTISRDNAKNNLYLQMSHLKSEDTAMYYCAGDRGYPYAMDSWGQGTSVTVSS
VL: NIMMTQSPSSLAVSAGEKVTMSCKSSQSVLYSSNQKNYLAWYQQKPGQSPKLLIYWASTRESGVPDRFTGSGSGTDFTLTISNVHAEDLAVYYCHQYLSSLTFGAGTKLELKR
notes: as for B1
B4: S009-F8-28.23 (antibody, human IgG1, kappa, V domains shown)
VH: B3 VH with G10D, N56S, K65E, P103S, M106L, S108Y
VL: B3 VL with N83S, H85Q
notes: as for B1
B5: S009-F8-24.14 (antibody, human IgG1, kappa, V domains shown)
VH: EFQLQQSGPELVKPGASVKISCKASGYSFTDYNMNWVKLSNGKSLEWIGVIIPNYGTSSYNQKFKGKATLTVDQSSSTAYMQLNSLTSEDSAVYYCARWDNYYGSSLDYWGQGTTLTVSS
VL: DIVMTQSQKFMSTTVGDRVSITCKASQNVGTAVAWYQQKPGQSPKLLIYSASNRYTGVPDRFTGSGSGTDFILTISNMQSEDLADYFCQQYSSYPLTFGAGTKLELKR
notes: as for B1
B6: S009-F8-18.9 (antibody, human IgG1, kappa, V domains shown)
VH: EFQLQQSGPELVKPGASVKISCKASGYSFTDYNMNWVKQSNGKSLEWIGIINPNYGTTSYNQKFKGRATLTVDQSSSTAYVQLNSLTSEDSAVYYCARGGYDNEAMDYWGQGTSVTVSS
VL: QIVLTQSPAIMSASPGEKVTMTCSASSSVSYMHWYQQKSGTSPKRWIYDTSKLASGVPARFSGSGSGTSYSLTISSMEAEDAATYYCQQWSSNPPTFGAGTKLELKR
notes: as for B1
B7: S009-F8-19.21 (antibody, human IgG1, kappa, V domains shown)
VH: B6 VH with A24T, I50V, S59G, R67K, V81M, N103G, Q111H
VL: B6 VL with S30N, N93Y, A99G, L105I
notes: as for B1
B8: S009-F8-22.23 (antibody, human IgG1, kappa, V domains shown)
VH: QVQLKQSGPGLVQPSQSLSITCTVSGFSLFSYGVHWVRQSPGKGLEWLGVIWSGGSTDYNAAFISRLSISKDNSKSQVFFKMNSLQADDTAMYYCARNGGSMITTLYYAMDYWGQGTSVTVSS
VL: DVVMTQTPLSLPVSLGDQASISCRSSQSLVHSYGNTYLHWYLQKPGQSPKLLIYKVSNRFSGVPDRFSGSGSGTDFTLKISRVEAEDLGVYFCSQSTHIPFTFGGGTKLEIKR
notes: as for B1
B9: S009-F8-32.3 (antibody, human IgG1, kappa, V domains shown)
VH: QVQLKESGPGLVAPSQSLSITCTVSGFSLSSYAISWVRQPPGKGLEWLGVIWTGGGTNYNSALKSRLSISKDNSKSQVFLKMNSLQTDDTARFYCARNNYGRLDYAMDYWGQGTSVTVSS
VL: B8 VL with S32G, Y33N, A85T, I99V, G105S
notes: as for B1
B10: S009-F8-29.1 (antibody, human IgG1, kappa, V domains shown)
VH: QVQLQQSGAELARPGASVKMSCKASGYTFISYTMHWVKQRPGQGLEWIGYINPSSGYTKYNQKFKDKATLTADKSSSTAYMQLNSLTSEDSAVYYCARYYSNPDYYAMDYWGQGTSVTVSS
VL: QIVLTQSPAIMSASPGEKVTITCSASSSVSYMHWFQQKPGTSPKLWIYSTSNLASGVPARFSGSGSGTSYSLTISRMEAEDAATYYCQQRSSYPLTFGGGTKLELKR
notes: as for B1

Residue numbers refer to the chain shown, from its start.

T1 sequence (Q13421 other isoform, or with tags, fused parts or gaps): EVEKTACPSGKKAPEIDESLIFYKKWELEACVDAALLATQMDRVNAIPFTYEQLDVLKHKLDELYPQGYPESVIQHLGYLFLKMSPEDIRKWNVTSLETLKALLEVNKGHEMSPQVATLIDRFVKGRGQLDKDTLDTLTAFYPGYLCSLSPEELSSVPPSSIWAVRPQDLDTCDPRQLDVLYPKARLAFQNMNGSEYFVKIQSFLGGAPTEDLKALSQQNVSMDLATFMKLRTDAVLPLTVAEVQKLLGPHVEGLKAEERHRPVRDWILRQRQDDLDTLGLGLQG

The first assay has as its target T1, human MSLN-FL-his protein (human, UniProt Q13421 296-580).
T1 construct: Made in HEK293E cells, purified on nickel column; it is put last here; also called human MSLN full-length protein; hMSLN-FL-his; not shown: His tag
Briefly: ELISA on coated antigen, no antibody (blank, column 'none'). Background: In an ELISA, binding on a coated surface is turned into a signal by an enzyme label.
With B1, the OD450 was 0.08 OD.
The molecule B2 yielded an OD450 of 0.05 OD.
B3 had an OD450 of 0.04 OD.
Same read-out and setting: as for B4, the figure is 0.05 OD; as for B5, 0.06 OD; as for B6, 0.05 OD.
For the molecule B7, the OD450 came out at 0.06 OD.
The same measure, in the same setting: as for B8, the figure is 0.04 OD.
Same read-out and setting: then B9, with 0.04 OD; and B10, with 0.18 OD.

The target in a further assay is T1, human MSLN-FL-his protein. Briefly: ELISA on coated antigen, antibody 0.001 nM.
Experimental: (§1) The plate was sealed with a plastic film and incubated at 4° C. overnight. The next day, the plate was washed twice with PBST, and a blocking buffer [PBS+2% (w/w) BSA] was added for blocking at room temperature for 2 h. The blocking buffer was discarded, and a chimeric antibody or negative control antibody serially diluted from 100 nM was added at 50 μL/well. After incubation at 37° C. for 2 h, the plate was washed 3 times with PBST. […] After incubation at 37° C. for 2 h, the plate was washed 5 times with PBST. A TMB substrate was added at 50 μL/well for incubation at room temperature for 5-10 min, and then a stop solution (1.0 N HCl) was added at 50 μL/well.
Regarding B1, the OD450 turned out to be 0.2 OD.
The same measure, in the same setting: as for B2, the figure is 0.08 OD.
Same read-out and setting: as for B3, the figure is 0.08 OD.
Same read-out and setting: as for B4, the figure is 0.08 OD; as for B5, 0.18 OD.
Molecule B6 registered an OD450 of 0.15 OD.
On the same count and under the same terms, as for B7, the figure is 0.1 OD; as for B8, 0.44 OD; as for B9, 0.11 OD.
Still for that read-out and setting: then B10, with 0.13 OD.

A further assay concerns the target T1, human MSLN-FL-his protein. Briefly: ELISA on coated antigen, antibody 10 nM.
Experimental: as §1
In the case of B1, the OD450 is 2.56 OD.
Still for that read-out and setting: then B2, with 2.47 OD; and B3, with 2.37 OD.
B4: the OD450 is 3.13 OD.
The same measure, in the same setting: then B5, with 2.98 OD.
Same read-out and setting: then B6, with 2.39 OD; and B7, with 2.32 OD; and B8, with 2.88 OD.
Same read-out and setting: as for B9, the figure is 2.85 OD; as for B10, 3.2 OD.

In the next assay the target is T1, human MSLN-FL-his protein. Briefly: ELISA on coated antigen, antibody 0.0001 nM.
Experimental: as §1
As to B1, the OD450 was 0.08 OD.
Still for that read-out and setting: as for B2, the figure is 0.05 OD; as for B3, 0.05 OD; as for B4, 0.05 OD.
On the same count and under the same terms, then B5, with 0.1 OD; and B6, with 0.06 OD.
For B7, the OD450 came to 0.06 OD.
In turn, B8 gave an OD450 of 0.29 OD.
Still for that read-out and setting: then B9, with 0.07 OD.
Still for that read-out and setting: as for B10, the figure is 0.07 OD.

The next assay deals with T1, human MSLN-FL-his protein. Briefly: ELISA on coated antigen, antibody 100 nM.
Experimental: as §1
As to B1, the OD450 was determined as 2.66 OD.
On the same count and under the same terms, as for B2, the figure is 2.64 OD.
Molecule B3 showed an OD450 of 2.5 OD.
The molecule B4 registered an OD450 of 3 OD.
B5 yielded an OD450 of 2.91 OD.
B6 returned an OD450 of 2.42 OD.
On the same count and under the same terms, then B7, with 2.37 OD; and B8, with 2.9 OD; and B9, with 3.03 OD.
Same read-out and setting: as for B10, the figure is 3.07 OD.

In a further assay the target is T1, human MSLN-FL-his protein. Briefly: ELISA on coated antigen, antibody 0.1 nM.
Experimental: as §1
With B1, the OD450 stood at 2.19 OD.
Same read-out and setting: as for B2, the figure is 1.11 OD; as for B3, 1.34 OD; as for B4, 1.04 OD.
Still for that read-out and setting: as for B5, the figure is 2.02 OD; as for B6, 1.93 OD.
The molecule B7 came in with an OD450 of 1.61 OD.
Same read-out and setting: as for B8, the figure is 1.71 OD; as for B9, 1.63 OD.
The same measure, in the same setting: then B10, with 1.71 OD.

A further assay deals with T1, human MSLN-FL-his protein. Briefly: ELISA on coated antigen, antibody 1 nM.
Experimental: as §1
Consider B1, for which the OD450 stood at 2.53 OD.
The same measure, in the same setting: then B2, with 2.23 OD; and B3, with 2.23 OD.
B4: the OD450 was found to be 2.63 OD.
Same read-out and setting: then B5, with 2.77 OD; and B6, with 2.29 OD.
Molecule B7 came in with an OD450 of 2.05 OD.
With B8, the OD450 amounted to 2.49 OD.
Still for that read-out and setting: as for B9, the figure is 2.64 OD.
Molecule B10 yielded an OD450 of 2.9 OD.

Another assay addresses T1, human MSLN-FL-his protein. Briefly: ELISA on coated antigen, antibody 0.01 nM.
Experimental: as §1
B1 came in with an OD450 of 0.85 OD.
On the same count and under the same terms, then B2, with 0.24 OD; and B3, with 0.31 OD; and B4, with 0.24 OD.
Molecule B5 yielded an OD450 of 0.75 OD.
In turn, B6 yielded an OD450 of 0.71 OD.
With B7, the OD450 amounted to 0.4 OD.
As to B8, the OD450 was 0.92 OD.
In the case of B9, the OD450 was 0.48 OD.
On to B10, for which the OD450 came to 0.48 OD.

The values are drawn from patent US20250250357A1 (NANJING ZAIMING PHARMACEUTICAL, published 2025).
